B1: Lip-VIN3VEL (residues 500–603), wild type [Arabidopsis thaliana] / itself (parent)
chain: GKQGGNKRFKSRTVSLNEKPEINNAANGVGDKDLGHIVKTIRCLEEEGHIDKSFRERFLTWYSLRATHREVRVVKIFVETFMEDLSSLGQQLVDTFSESILSKR
B2: Lip-VEL1VEL (residues 589–692), wild type [Arabidopsis thaliana] / itself (parent)
chain: SDEIKNRQARIEISMKDNCNNGDHSANGGTESGLEHCVKIIRQLECSGHIDKNFRQKFLTWYSLRATSQEIRVVKIFIDTFIDDPMALAEQLIDTFDDRVSIKR

Assays:
Experiment in all cases: SEC-MALS
itself [1] = variants of: B1; conditions: with itself; predicted molecular mass 20.3 kDa; concentration not given
itself [2] = variants of: B1; conditions: with itself; predicted molecular mass 20.3 kDa; concentration not given; remark: listed apart in the source
itself [3] = variants of: B2; conditions: with itself; 255 µM sample; predicted molecular mass 23.4 kDa
itself [4] = variants of: B2; conditions: with itself; 255 µM sample; predicted molecular mass 23.4 kDa; remark: listed apart in the source

Row | Variant | screen value (itself [1]) | screen value (itself [2]) | screen value (itself [3]) | screen value (itself [4])
1 | chain 1 L64D | 1.6 molecules | 33.5 kDa | – | –
2 | chain 1 R42H | 1.2 molecules | 23.8 kDa | – | –
3 | chain 1 R57D | 1.2 molecules | 24.6 kDa | – | –
4 | chain 1 R55A K57D | – | – | 1.1 molecules | 25 kDa

From publication PMC7614096, “Head-to-tail polymerization by VEL proteins underpins cold-induced Polycomb silencing in flowering control” (Cell Reports, 2022)
